Assay results from publication PMC10397247.

Experiments:
Assay in all cases: two-hybrid library CCNG1;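 further: natural log of median RNA to DNA barcode read ratio; higher means stronger binding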
4H477-bN = biological target: T1, 4H477-bN
T1 chain: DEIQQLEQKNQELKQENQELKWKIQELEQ

4H3907-bN = biological target: T2, 4H3907-bN
T2 chain: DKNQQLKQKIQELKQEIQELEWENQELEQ

4H4038-bN = biological target: T3, 4H4038-bN
T3 chain: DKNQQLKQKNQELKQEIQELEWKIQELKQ

4H2586-bA = biological target: T4, 4H2586-bA
T4 chain: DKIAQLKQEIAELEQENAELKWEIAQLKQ

4H3601-bN = biological target: T5, 4H3601-bN
T5 chain: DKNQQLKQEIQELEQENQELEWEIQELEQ

4H1406-bN = biological target: T6, 4H1406-bN
T6 chain: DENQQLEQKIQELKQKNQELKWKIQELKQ

4H3592-bN = biological target: T7, 4H3592-bN
T7 chain: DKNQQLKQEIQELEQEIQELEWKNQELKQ

4H932-bA = biological target: T8, 4H932-bA
T8 chain: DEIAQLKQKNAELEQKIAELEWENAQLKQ

P5bH1 = biological target: T9, P5bH1
T9 chain: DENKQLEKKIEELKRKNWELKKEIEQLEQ

P9bH1 = biological target: T10, P9bH1
T10 chain: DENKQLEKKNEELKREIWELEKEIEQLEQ

P2bH1 = biological target: T11, P2bH1
T11 chain: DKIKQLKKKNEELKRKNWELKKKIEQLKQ

P7bH1 = biological target: T12, P7bH1
T12 chain: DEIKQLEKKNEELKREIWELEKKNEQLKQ

P4bH1 = biological target: T13, P4bH1
T13 chain: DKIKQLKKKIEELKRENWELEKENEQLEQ

P1bH1 = biological target: T14, P1bH1
T14 chain: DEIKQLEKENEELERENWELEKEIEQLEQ

P6bH1 = biological target: T15, P6bH1
T15 chain: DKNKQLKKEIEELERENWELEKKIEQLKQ

P8bH1 = biological target: T16, P8bH1
T16 chain: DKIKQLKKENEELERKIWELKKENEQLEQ

P3bH1 = biological target: T17, P3bH1
T17 chain: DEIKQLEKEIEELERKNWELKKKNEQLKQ

4H349-bA = biological target: T18, 4H349-bA
T18 chain: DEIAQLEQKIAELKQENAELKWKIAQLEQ

4H3381-bA = biological target: T19, 4H3381-bA
T19 chain: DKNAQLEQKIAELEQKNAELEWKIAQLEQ

P5SH = biological target: T20, P5SH
T20 chain: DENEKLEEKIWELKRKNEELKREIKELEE

4H56-bA = biological target: T21, 4H56-bA
T21 chain: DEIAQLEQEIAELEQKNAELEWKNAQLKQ

4H796-bA = biological target: T22, 4H796-bA
T22 chain: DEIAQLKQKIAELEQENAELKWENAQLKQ

4H730-bA = biological target: T23, 4H730-bA
T23 chain: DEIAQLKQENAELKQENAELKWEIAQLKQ

4H949-bA = biological target: T24, 4H949-bA
T24 chain: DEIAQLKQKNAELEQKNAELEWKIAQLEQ

4H2931-bA = biological target: T25, 4H2931-bA
T25 chain: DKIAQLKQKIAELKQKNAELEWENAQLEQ

4H3041-bA = biological target: T26, 4H3041-bA
T26 chain: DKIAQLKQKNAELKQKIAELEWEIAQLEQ

4H2760-bA = biological target: T27, 4H2760-bA
T27 chain: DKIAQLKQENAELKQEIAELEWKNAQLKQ

4H3297-bA = biological target: T28, 4H3297-bA
T28 chain: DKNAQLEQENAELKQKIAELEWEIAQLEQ

4H3364-bA = biological target: T29, 4H3364-bA
T29 chain: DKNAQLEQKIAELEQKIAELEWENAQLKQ

4H3427-bA = biological target: T30, 4H3427-bA
T30 chain: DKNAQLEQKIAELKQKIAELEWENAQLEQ

O8-bS = biological target: T31, O8-bS
T31 chain: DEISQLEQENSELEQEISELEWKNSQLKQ

4H2859-bA = biological target: T32, 4H2859-bA
T32 chain: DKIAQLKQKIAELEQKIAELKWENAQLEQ

4H264-bA = biological target: T33, 4H264-bA
T33 chain: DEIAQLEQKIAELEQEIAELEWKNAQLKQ

DENQQLEQKIQELKQKNQELKWKIQELKQ [4H1406-bN] gave an interaction score (4H477-bN) of -2.09, an interaction score (4H3907-bN) of 0.347 and an interaction score (4H4038-bN) of -1.69. It also gave an interaction score (4H2586-bA) of 0.875, an interaction score (4H3601-bN) of 1.53 and an interaction score (4H1406-bN) of -0.553. The interaction score (4H3592-bN) was 0.142 and the interaction score (4H932-bA) was -1.96.

Binder DEIKQLEKENEELERENWELEKEIEQLEQ [P1bH1] has an interaction score (P5bH1) of -1.15, an interaction score (P9bH1) of -0.87 and an interaction score (P2bH1) of 1.17. The interaction score (P7bH1) was -0.809, the interaction score (P4bH1) was -1.38 and the interaction score (P1bH1) was -0.717. It also gave an interaction score (P6bH1) of -1.2, an interaction score (P8bH1) of -0.757 and an interaction score (P3bH1) of -1.08.

DEIAQLEQKIAELEQEIAELEWKNAQLKQ [4H264-bA] was tested, and the interaction score (4H349-bA) was -0.396, the interaction score (4H3381-bA) was 0.311 and the interaction score (P5SH) was 1.79. It also gave an interaction score (4H56-bA) of -0.504, an interaction score (4H796-bA) of -0.521 and an interaction score (4H730-bA) of -1.63. For the same binder, the interaction score (4H949-bA) was -0.323, the interaction score (4H2931-bA) was 2.07 and the interaction score (4H3041-bA) was 2.21. For the same binder, the interaction score (4H2760-bA) was -0.475, the interaction score (4H3297-bA) was 0.896 and the interaction score (4H3364-bA) was 0.942. For the same binder, the interaction score (4H3427-bA) was 1.19, the interaction score (O8-bS) was -1.91 and the interaction score (4H2859-bA) was 1.6. For the same binder, the interaction score (4H264-bA) was 1.38 and the interaction score (4H932-bA) was -0.419.
